From US20250025541A1 come the findings set out here.

For the assay, the target named is IL-4Ra of CTLL-2 cells (UniProt P16382). Nature of the assay: cell-based or functional assay.

The substance muIL-4 immunogenic product (KLH) had an ED50 [ng · mL^-1], residual activity, CTLL-2 proliferation of 0.0215 µg/mL and an Inactivation factor (ED50 of the product divided by ED50 of the muIL-4 control), CTLL-2 proliferation of 21.
For “muIL-4 immunogenic product (CRM197) (from UniProt P07750 21-140; P00587 26-560)”, in that order: 0.62 µg/mL and 370.
